Experimental data published in patent US7981843.

B1: Murine Fab M166 (Fab, from another filing, V domains shown)
VH: QVQLKQSGPGLVQPSQSLSITCTVSGFSLTSYGVHWVRQSPGKGLEWLGVIWSGGDTDYNAAFISRLSISKDNSKSQLFFKMNSLRATDTAIYYCARNRGDIYYDFTYAMDYWGQGTSVTVSS
VL: DIQMTQSPASLSASVGETVTITCRASGNIQNYLAWYQQTQGKSPQLLVYSAKTLADGVPSRFSGSGSGTQYSLKINSLQPEDFGSYYCQHFWSTPYTFGGGTKLEIKR

What was measured:
[1] = target: PcrV of Pseudomonas aeruginosa strain PA103 (native, on the bacteria) (Pseudomonas aeruginosa); test: cell-based or functional assay
[2] = target: GST-PcrV fusion protein (Pseudomonas aeruginosa) [GST: P08515]; test: SPR, Biacore 3000, GST-PcrV amine-coupled to CM4 chip, Fab in solution
[3] = target: GST-PcrV fusion protein (Pseudomonas aeruginosa) [GST: P08515]; test: dilution ELISA, purified Fab in twofold series in duplicate on plates coated with GST-PcrV, TMB A450 (upper chart)

Row | Molecule | IC50, inhibition of Pseudomonas-mediated (TTSS exotoxin-dependent) cytotoxicity to P3-X63-Ag8 cells, propidium iodide flow cytometry [1] [nM] | Kd [2] [nM] | koff [2] [s⁻¹] | kon [2] [M⁻¹ s⁻¹] | EC50 (read off the curve) [3] [nM]
1 | Mab 166 whole IgG (antibody) | 93 |  |  |  | 
2 | B1 |  | 1.1 | 0.00026 | 249000 | 6
